Target: human CD28 (human, UniProt P10747 19-220)
Experiment: -; scFv VHVL, 1+1 Fab-scFv-Fc format

Binder	Kd
H1_L1.71 (antibody, V domains shown) VH: EVQLLESGGGLVQPGGSLRLSCAASGFTFSSYAMSWVRQAPGKGLEWVSTISGSGDSTYYADSVKGRFTISRDNSKNTLYLQMNSLRAEDTAVYYCAKSGPGLRQVGFDYWGQGTLVTVSS VL: not shown	180 nM
H1.1_L1 (antibody, V domains shown) VH: EVQLLESGGGLVQPGGSLRLSCAASGFTFSSYYMSWVRQAPGKGLEWVSTISGSGDSTYYADSVKGRFTISRDNSKNTLYLQMNSLRAEDTAVYYCAKSGPGLRQVGFDYWGQGTLVTVSS VL: not shown	600 nM
H1L1 (antibody, V domains shown) VH: EVQLLESGGGLVQPGGSLRLSCAASGFTFSSYAMSWVRQAPGKGLEWVSTISGSGDSTYYADSVKGRFTISRDNSKNTLYLQMNSLRAEDTAVYYCAKSGPGLRQVGFDYWGQGTLVTVSS VL: not shown	1000 nM
H1.1_L1.71 (antibody, V domains shown) VH: EVQLLESGGGLVQPGGSLRLSCAASGFTFSSYYMSWVRQAPGKGLEWVSTISGSGDSTYYADSVKGRFTISRDNSKNTLYLQMNSLRAEDTAVYYCAKSGPGLRQVGFDYWGQGTLVTVSS VL: not shown	96 nM

Reference: US20250122299A1 (published 2025)
